Publication PMC7060279 (2020)

How the values were obtained:
Assay in all cases: SPR
[1] = molecular target: human recombinant TLR4 protein (without MD2) (human, UniProt O00206 24-631)
integrin αvβ3 protein = molecular target: T1, integrin αvβ3 protein (UniProt P06756 31-1048; P05106 27-718)
T1 chain 1: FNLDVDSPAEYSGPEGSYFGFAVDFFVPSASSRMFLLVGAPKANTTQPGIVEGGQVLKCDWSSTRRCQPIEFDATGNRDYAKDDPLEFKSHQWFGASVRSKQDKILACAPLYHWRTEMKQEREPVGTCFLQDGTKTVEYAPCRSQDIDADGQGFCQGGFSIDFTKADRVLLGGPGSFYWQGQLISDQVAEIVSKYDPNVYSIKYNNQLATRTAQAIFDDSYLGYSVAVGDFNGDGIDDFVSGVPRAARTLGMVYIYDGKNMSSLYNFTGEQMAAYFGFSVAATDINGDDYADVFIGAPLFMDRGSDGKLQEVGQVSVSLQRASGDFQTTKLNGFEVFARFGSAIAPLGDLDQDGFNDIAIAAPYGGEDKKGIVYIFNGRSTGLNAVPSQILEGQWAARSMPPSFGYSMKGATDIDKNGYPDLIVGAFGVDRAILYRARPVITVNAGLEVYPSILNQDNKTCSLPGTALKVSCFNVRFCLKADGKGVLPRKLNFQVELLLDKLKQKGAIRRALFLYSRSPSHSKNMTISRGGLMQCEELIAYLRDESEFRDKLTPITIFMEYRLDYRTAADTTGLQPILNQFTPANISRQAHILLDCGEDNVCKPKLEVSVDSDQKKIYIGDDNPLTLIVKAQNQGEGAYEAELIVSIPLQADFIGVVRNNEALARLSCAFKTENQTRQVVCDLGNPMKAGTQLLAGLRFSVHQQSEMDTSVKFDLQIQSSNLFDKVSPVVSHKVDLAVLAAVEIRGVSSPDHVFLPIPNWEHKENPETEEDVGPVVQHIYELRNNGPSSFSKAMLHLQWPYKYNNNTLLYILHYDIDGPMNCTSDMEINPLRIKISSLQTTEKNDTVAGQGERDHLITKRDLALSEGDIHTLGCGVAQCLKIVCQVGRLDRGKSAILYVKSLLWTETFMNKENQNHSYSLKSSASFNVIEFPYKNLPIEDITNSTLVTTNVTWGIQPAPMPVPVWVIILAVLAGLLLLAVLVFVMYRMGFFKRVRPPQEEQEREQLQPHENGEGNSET
T1 chain 2: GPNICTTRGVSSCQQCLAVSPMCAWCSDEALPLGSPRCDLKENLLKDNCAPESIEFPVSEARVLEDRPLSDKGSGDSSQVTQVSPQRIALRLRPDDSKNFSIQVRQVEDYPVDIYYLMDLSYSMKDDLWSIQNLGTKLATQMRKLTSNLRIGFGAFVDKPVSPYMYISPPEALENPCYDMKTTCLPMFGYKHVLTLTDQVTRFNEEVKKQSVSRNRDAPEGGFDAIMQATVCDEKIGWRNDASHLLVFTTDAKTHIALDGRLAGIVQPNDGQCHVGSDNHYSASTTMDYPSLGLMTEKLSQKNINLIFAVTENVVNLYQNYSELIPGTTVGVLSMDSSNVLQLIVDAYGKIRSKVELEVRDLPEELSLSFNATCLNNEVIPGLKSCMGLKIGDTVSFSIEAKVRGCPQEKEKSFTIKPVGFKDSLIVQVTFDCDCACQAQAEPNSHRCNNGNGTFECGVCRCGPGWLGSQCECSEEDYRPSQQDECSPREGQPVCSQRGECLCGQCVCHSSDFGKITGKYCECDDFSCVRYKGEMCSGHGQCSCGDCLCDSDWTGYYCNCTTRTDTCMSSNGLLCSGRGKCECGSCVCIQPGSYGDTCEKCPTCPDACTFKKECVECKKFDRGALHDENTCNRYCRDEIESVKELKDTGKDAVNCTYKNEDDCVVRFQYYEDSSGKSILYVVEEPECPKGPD

[2] = molecular target: human recombinant TLR2 protein (human, UniProt O60603 21-588)
human recombinant TLR2 protein, sequence (O60603 21-588): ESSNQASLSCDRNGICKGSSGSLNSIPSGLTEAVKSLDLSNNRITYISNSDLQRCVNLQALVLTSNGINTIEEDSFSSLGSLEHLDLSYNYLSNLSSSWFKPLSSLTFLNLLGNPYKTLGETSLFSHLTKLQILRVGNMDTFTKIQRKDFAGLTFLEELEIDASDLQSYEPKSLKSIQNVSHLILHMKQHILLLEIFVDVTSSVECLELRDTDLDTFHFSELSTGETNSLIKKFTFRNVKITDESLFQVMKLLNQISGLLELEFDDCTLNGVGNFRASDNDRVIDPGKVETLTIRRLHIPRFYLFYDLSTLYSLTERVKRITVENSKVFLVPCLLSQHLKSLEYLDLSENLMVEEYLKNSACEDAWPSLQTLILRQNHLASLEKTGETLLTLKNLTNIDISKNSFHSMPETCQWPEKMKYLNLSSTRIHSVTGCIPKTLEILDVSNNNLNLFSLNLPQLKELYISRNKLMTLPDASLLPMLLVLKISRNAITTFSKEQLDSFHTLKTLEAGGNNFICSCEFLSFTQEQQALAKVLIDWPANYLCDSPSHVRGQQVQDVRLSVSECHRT

human recombinant TLR4 protein (without MD2), sequence (O00206 24-631): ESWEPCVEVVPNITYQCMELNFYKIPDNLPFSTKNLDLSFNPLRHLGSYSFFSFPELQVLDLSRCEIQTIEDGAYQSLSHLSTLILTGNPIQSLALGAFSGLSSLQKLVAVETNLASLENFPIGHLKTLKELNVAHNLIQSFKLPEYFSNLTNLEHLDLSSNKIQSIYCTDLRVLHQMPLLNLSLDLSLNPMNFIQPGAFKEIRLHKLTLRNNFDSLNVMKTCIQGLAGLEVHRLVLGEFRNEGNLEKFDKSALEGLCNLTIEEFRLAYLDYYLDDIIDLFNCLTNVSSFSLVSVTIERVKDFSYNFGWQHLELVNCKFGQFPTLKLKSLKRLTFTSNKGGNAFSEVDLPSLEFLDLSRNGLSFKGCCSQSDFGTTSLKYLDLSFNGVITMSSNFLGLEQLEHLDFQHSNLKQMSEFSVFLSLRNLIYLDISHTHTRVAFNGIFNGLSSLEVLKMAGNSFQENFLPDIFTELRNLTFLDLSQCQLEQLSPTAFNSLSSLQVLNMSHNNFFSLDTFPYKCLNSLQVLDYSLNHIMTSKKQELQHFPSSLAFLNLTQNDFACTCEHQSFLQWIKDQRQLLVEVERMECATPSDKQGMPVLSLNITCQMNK

koff [1]: 0.00288 s⁻¹
koff (integrin αvβ3 protein): 0.0193 s⁻¹
koff [2]: 0.0146 s⁻¹
B1: CCN1-WT (recombinant matricellular protein CCN1) (natural protein)
chain: TCPAACHCPLEAPKCAPGVGLVRDGCGCCKVCAKQLNEDCSKTQPCDHTKGLECNFGASSTALKGICRAQSEGRPCEYNSRIYQNGESFQPNCKHQCTCIDGAVGCIPLCPQELSLPNLGCPNPRLVKVSGQCCEEWVCDEDSIKDSLDDQDDLLGLDASEVELTRNNELIAIGKGSSLKRLPVFGTEPRVLFNPLHAHGQKCIVQTTSWSQCSKSCGTGISTRVTNDNPECRLVKETRICEVRPCGQPVYSSLKKGKKCSKTKKSPEPVRFTYAGCSSVKKYRPKYCGSCVDGRCCTPLQTRTVKMRFRCEDGEMFSKNVMMIQSCKCNYNCPHPNEASFRLYSLFNDIHKFRD
